Data reported in article PMC5683673.

Target: purified recombinant human dimeric DPP-4 protein (dipeptidyl peptidase-4) (human), P27487
Test: SEC
Settings: remark: other sources report otherwise

B1: purified recombinant human dimeric DPP-4 protein (dipeptidyl peptidase-4), P27487 29-766 (enzyme)
chain: NKGTDDATADSRKTYTLTDYLKNTYRLKLYSLRWISDHEYLYKQENNILVFNAEYGNSSVFLENSTFDEFGHSINDYSISPDGQFILLEYNYVKQWRHSYTASYDIYDLNKRQLITEERIPNNTQWVTWSPVGHKLAYVWNNDIYVKIEPNLPSYRITWTGKEDIIYNGITDWVYEEEVFSAYSALWWSPNGTFLAYAQFNDTEVPLIEYSFYSDESLQYPKTVRVPYPKAGAVNPTVKFFVVNTDSLSSVTNATSIQITAPASMLIGDHYLCDVTWATQERISLQWLRRIQNYSVMDICDYDESSGRWNCLVARQHIEMSTTGWVGRFRPSEPHFTLDGNSFYKIISNEEGYRHICYFQIDKKDCTFITKGTWEVIGIEALTSDYLYYISNEYKGMPGGRNLYKIQLSDYTKVTCLSCELNPERCQYYSVSFSKEAKYYQLRCSGPGLPLYTLHSSVNDKGLRVLEDNSALDKMLQNVQMPSKKLDFIILNETKFWYQMILPPHFDKSKKYPLLLDVYAGPCSQKADTVFRLNWATYLASTENIIVASFDGRGSGYQGDKIMHAINRRLGTFEVEDQIEAARQFSKMGFVDNKRIAIWGWSYGGYVTSMVLGSGSGVFKCGIAVAPVSRWEYYDSVYTERYMGLPTPEDNLDHYRNSTVMSRAENFKQVEYLLIHGTADDNVHFQQSAQISKALVDVGVDFQAMWYTDEDHGIASSTAHQHIYTHMSHFIKQCFSLP
B1 showed a percent present as dimer of 85%.
